The values below come from PMC3520970 (PLoS ONE, 2012).

The labels stand for the following.
B2: P2 on rat liver ribosome (natural protein, rat (endogenous in rat liver ribosome), UniProt P02401 1-115, looked up)
chain: MRYVASYLLAALGGNSNPSAKDIKKILDSVGIEADDERLNKVISELNGKNIEDVIAQGVGKLASVPAGGAVAVSAAPGSAAPAAGSAPAAAEEKKDEKKEESEESDDDMGFGLFD
notes: also called P-protein P2

The target in test [1] is P2 on rat liver ribosome (rat (endogenous in rat liver ribosome)) (UniProt P02401). To be noted: scale: arbitrary.
In test [2] the target is Ribosomal protein P2 (UniProt P05387).
For test [3] the target is unchanged. Nature of the test: SPR; BIAcore 3000; P2 amine-coupled to CM5 chip (1300 RU); RIPs injected at 30 µl/min in 20 mM Tris, 30 mM NaCl, 0.005% Tween 20, pH 7.4; KD from RU at equilibrium. (In SPR one partner is held on a chip, and binding of the other changes the refractive index at the surface.)
The test “P2 on rat liver ribosome” concerns the target B2. Nature of the test: cell-based or functional assay.
A further test concerns the target T1, His-Myc-tagged MOD (maize, UniProt P25891 17-286, Δ163–164 | Δ167–189, labelled with the crosslinker NHS-SS-Diazirine (SDAD)).
T1 construct: source: E. coli BL21(DE3)pLysS, purified (HisTrap); not shown: Myc, C-terminal, kept
T1 sequence: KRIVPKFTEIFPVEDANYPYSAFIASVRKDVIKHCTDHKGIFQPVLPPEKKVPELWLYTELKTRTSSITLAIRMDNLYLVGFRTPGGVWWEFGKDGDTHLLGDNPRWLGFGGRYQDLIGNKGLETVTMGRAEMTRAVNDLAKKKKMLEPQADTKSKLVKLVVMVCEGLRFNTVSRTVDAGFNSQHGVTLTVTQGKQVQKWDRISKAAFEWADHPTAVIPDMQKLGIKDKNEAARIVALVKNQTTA
Nature of the test: cross-linking; SDAD-labelled Myc-MOD (90 µM) with rat liver ribosome (0.8 µM) in PBS, room temperature 30 minutes, UV 365 nm for an hour; western blot with anti-Myc and anti-P. To be noted: both partners purified.

In test [4] the target is Ribosomal protein P2 (UniProt P05387 1-115). Nature of the test: cell-based or functional assay.

By Kd is commonly meant the concentration at which binding is half-saturated. As to Trichosanthin (enzyme), in test [1], the relative N-glycosidase activity on rat liver ribosome (5 nM RIP, qPCR) is 2610. Besides, the cytotoxicity to 293T cells (MTT, 72 hours), EC50 with Ribosomal protein P2 [2] was 0.63 µM. In the test with Ribosomal protein P2 [3], this molecule showed a Kd of 612 µM.

B1: Maize [Δ1–16, Δ287–300]-Pro-RIP (enzyme)
chain: KRIVPKFTEIFPVEDANYPYSAFIASVRKDVIKHCTDHKGIFQPVLPPEKKVPELWLYTELKTRTSSITLAIRMDNLYLVGFRTPGGVWWEFGKDGDTHLLGDNPRWLGFGGRYQDLIGNKGLETVTMGRAEMTRAVNDLAKKKKMATLEEEEVQMQMQMPEAADLAAAAAADPQADTKSKLVKLVVMVCEGLRFNTVSRTVDAGFNSQHGVTLTVTQGKQVQKWDRISKAAFEWADHPTAVIPDMQKLGIKDKNEAARIVALVKNQTTA
Consider B1, for which, in the test with P2 on rat liver ribosome, the “N-glycosidase activity on rat liver ribosome, folds increased to untreated” value stood at 1.59 fold and the “relative N-glycosidase activity on rat liver ribosome (5 nM RIP, qPCR)” value (from here on “relative N-glycosidase activity”) was 6.06 arbitrary (ratio multiplied by an arbitrary factor).
As to B2, the binding result in the test with His-Myc-tagged MOD is listed as “binds”.

B3: Maize [Δ1–16, Δ163–164, Δ167–189, Δ287–300]-Pro-RIP (enzyme)
chain: KRIVPKFTEIFPVEDANYPYSAFIASVRKDVIKHCTDHKGIFQPVLPPEKKVPELWLYTELKTRTSSITLAIRMDNLYLVGFRTPGGVWWEFGKDGDTHLLGDNPRWLGFGGRYQDLIGNKGLETVTMGRAEMTRAVNDLAKKKKMLEPQADTKSKLVKLVVMVCEGLRFNTVSRTVDAGFNSQHGVTLTVTQGKQVQKWDRISKAAFEWADHPTAVIPDMQKLGIKDKNEAARIVALVKNQTTA
As to B3, the “cytotoxicity to 293T cells (MTT, 72 hours), IC50 (also called EC50)” value with Ribosomal protein P2 [4] turned out to be 7.88 µM. Moreover, in the test with P2 on rat liver ribosome, the “N-glycosidase activity on rat liver ribosome, folds increased to untreated” value amounted to 14.3 fold and the “relative N-glycosidase activity” value is 54.3 arbitrary (ratio multiplied by an arbitrary factor).

B4: MOD [K158A-K161A] (enzyme)
chain: KRIVPKFTEIFPVEDANYPYSAFIASVRKDVIKHCTDHKGIFQPVLPPEKKVPELWLYTELKTRTSSITLAIRMDNLYLVGFRTPGGVWWEFGKDGDTHLLGDNPRWLGFGGRYQDLIGNKGLETVTMGRAEMTRAVNDLAAAAAMLEPQADTKSKLVKLVVMVCEGLRFNTVSRTVDAGFNSQHGVTLTVTQGKQVQKWDRISKAAFEWADHPTAVIPDMQKLGIKDKNEAARIVALVKNQTTA
For the molecule B4, in the test with P2 on rat liver ribosome, the “N-glycosidase activity on rat liver ribosome, folds increased to untreated” value came to 0.85 fold and the “relative N-glycosidase activity” value is 3.24 arbitrary (ratio multiplied by an arbitrary factor).
